{
  "source": "paper PMC3995681",
  "about": "“Structural, Kinetic and Proteomic Characterization of Acetyl Phosphate-Dependent Bacterial Protein Acetylation” (PLoS ONE, 2014)",
  "biological_target": "the molecule itself",
  "assay": "crystal structure; GapA crystals from PACT G2 (0.2 M sodium bromide, 0.1 M Bis Tris propane 7.5, 20% PEG 3350), grown at 22°C, soaked with about 10 mM acP for less than 30 sec; data at 100 K",
  "data": [
    {"protein": "glyceraldehyde-3-phosphate dehydrogenase (GapA) from E. coli (enzyme, E. coli K-12, UniProt P0A9B2 1-331, looked up, acetyl-lysine at K46, K249, K257 and K116 after the acP soak of the crystals (not in all molecules of the asymmetric unit), glyceraldehyde-3-phosphate dehydrogenase GapA, E. coli K-12, ORF of the gene from the ASKA clone; The crystals were grown from unmodified protein and acetylated by a soak with acP of under 30 sec; source: E. coli BL-21 (DE3) Magic cells, ASKA clone in pCA24N, purified) MTIKVGINGFGRIGRIVFRAAQKRSDIEIVAINDLLDADYMAYMLKYDSTHGRFDGTVEVKDGHLIVNGKKIRVTAERDPANLKWDEVGVDVVAEATGLFLTDETARKHITAGAKKVVMTGPSKDNTPMFVKGANFDKYAGQDIVSNASCTTNCLAPLAKVINDNFGIIEGLMTTVHATTATQKTVDGPSHKDWRGGRGASQNIIPSSTGAAKAVGKVLPELNGKLTGMAFRVPTPNVSVVDLTVRLEKAATYEQIKAAVKAAAEGEMKGVLGYTEDDVVSTDFNGEVCTSVFDAKAGIALNDNFVKLVSWYDNETGYSNKVLDLIAHISK", "values": [
      {"measurement": "stoichiometry N", "result": 4}
    ]}
  ]
}
